This note sets out measurements from a protein production outcome set (Wang et al. 2014).

The nature of the series: label from the status in PepcDB records.
Take “MAGENSDNEPSSPASPSSAGFNTDQLPISTSQNSENFSDEEEAAVDTQVIRDEPDEAEDEEEEEGEDLFNDTFMNDYRKMDENDQYESNGIDDSVDDERDLGQAMLDRRAADADLDARENRLANRKLPHLLHDNDSDDWNYRPSKRSRTTVPPRGNGGDPDGNPPSSPGVSQPDISMTDQTDDYQDEDDNDDEAEFEMYRIQGTLREWVMRDEVRRFIAKKFKDFLLTYVKPKNENGDIEYVPNKCSLEIDYKEFIHVHPNIAIWLADAPQPVLEVMEEVSEKVIFDLHPNYKNIHTKIYVRVTNLPVNDQIRNIRQIHLNTMIRIGGVVTRRSGVFPQLQQVKYDCNKCGAVLGPFFQNSYSEVKVGSCSECQSKGPFTVNVEQTIYRNYQKLTIQESPGTVPAGRLPRHKEVILLNDLIDCARPGEEIEVTGIYTNNFDLSLNTKNGFPVFATVVEANYVTKKQDLFSAYKLTQEDKTQIEELSKDPRIVERIIKSIAPSIYGHEDIKTALALAMFGGQEKNIKGKHRLRGDINVLLLGDPGTAKSQFLKYVEKTGQRAVYTTGKGASAVGLTAAVHKDPVTREWTLEGGALVLADRGICLIDEFDKMNDQDRVSIHEAMEQQSISISKAGIVTSLQARCSVIAAANPVGGRYDSSKSFAQNVELTDPILSRFDILCVVKDVVDPVTDEMLAEFVVNSHFKSQPKGGKMEDSDPEDGIQGSSGSTDPEVLPQNLLKKYLTYSKLYVFPKLGELDAKKLETVYANLRRESMNGQGVSIATRHLESMIRMSEAHARMHLRQYVTEEDVNMAIRVLLDSFISTQKFGVQRTLRESFKRYITYKKDFNSLLLVLLKELVKNALKFEEIISGSNSGLPTIEVKIEELQTKAKEYDIADLRPFFSSTDFSKAHFELDHGRGMIKCPKRLITW”: the protein production result is “failed”.
Regarding “HHIAYTEWGIFEPELPTVICVHGYTRNSRDFDELANYLSSKGRHVFCPDIAGRGDSSWFKNPRYYNFTQYVKDMTVLMARTNAHQIDWIGTSMGGIIGMILAAMPNSPINKLVLNDIGPQIPIHGLRRIAKYAGKAPDFKSLEEAKQHFKASYADFGITNEKQWDIFTKNSVEQRGPNLYVTKMDPAIKKSKSILQIISEFFRHPHKALEGIFYDINLWSIWKQIKCPVIVIHGVNSDILTSEIITQMKKTHALTEVYEVENAGHAPALLDLTVHQRIEDWLATH”, the protein production entry is “failed”.
As for “MMKRHNILTVLAVLLLTFAACDKNSAPGFSFTTDSILTLTFDKELDAAFVGVGTQNYNPVGMRRSGDTLFIANRAEGSDGVWVVRASTGELLYSLTGWTYNGKNEKFDNQVMDVAVSSDYIFVVNRSSRIDLFRRNDYSYVTTIGRTGWQSSSLLQCEAAEVAGDKLFIRDKQKIKVVQISDCTPENRFKVPVFAQNTDSTSSNNGFNLESVARHEGLIYVSDYETSRILVIDPATVAVKGEPVRFLRSYRMPNKPLSMGFFQNEMYVVCANNCIVRVDLRTGKELGSYSSFAGGVGLGTPGRLLFHNDTFYLAGRNANAPRLIQGKVMFVEISELD”, the protein production result is on record as “failed”.
Regarding “MKTRMKITIAFVAVMVLSFTGYNVYKTQKAIQLSDVAMANVEALADGEGTNAGYCYLEDTWSTKRGYKYFCDSKTDKNTIYPCPSSMESGWYDDNKQDRCTK”, the protein production result is recorded as “failed”.
As to “MVESKTKFEEIRKWVSDHKLRTVGCLWLSGITGSIAYNWSQPAMKTSVKIIHARLHAQALTLAALAGAAVVEYYDHKTEATNRYPKFLPPENLSHKD”, the protein production result is recorded as “failed”.
As to “MKTGKELKPGTVIRIDNDPWLVQKAEFTKSGRNSAIMKTKLKNLLTGYKTETVYGADDKLDDVILDRKEATLSFISGDTYTFMDTTDYTMYELNAEDIEAVLPFIEEGMTDVCEAVFFEDRLVSVDLPTTIVRQVDYTEGSARGDTSGKVMKPAKLKNGTELSVADFIEIGDMIEIDTREGGSYKGRAKV”, the protein production entry is “failed”.
As for “MKCIESLGKTVDEAVKKALSELKVTEDKVEIKVIDEGSKGLLNIIGKREAKVKVTLKTDYIDEVRTFLRKVFEDMNLVIEIKIKEIGNDLFVNLFGKNIGLLIGYRGETLDSLQYLVNLVANKNHADGKYKRVILDTENYRAKREETLKRLALKISKRVKEEKSPFKLEPMNPYERRVIHSALQNDKYVRTYSEGEEPHRRVVVELKKS”, the protein production result was “not failed”.
For the sequence “MKLENQSETTANIQLNAPELVEANIAEVTSITIEKFLGSFTSVTRLLLNLSPLKNFHKDGLVSGKWNEPKDVPECLLSQLETFVWRRLDWGREEEKEIATYILKNGRRLKKETFTTNPIESEGLNKLKERLKVLNGLDGVQAPLFRKDGVVVGKWNQPKNVPQCLLSHLETFVWTRYRWEREEEKEEATYILKNARLLSKATFSTNIIDLKEFHWFKK”, the protein production result is given as “failed”.
Regarding “MASEAVNVWSRTSLILIMLSAAILVVAVGAVMNSGLVESLQVPLWEKWVILVFLFALIIGIIGPLSGVGGGVIFVGLGMAILPFNVDFIRGAGLVAALSTSLNSAPYFTKKGLANLRIVAPLVSVSTIFSVFGGVIGLWISNSFPEGSYYVKMSLGVVLLVLLLILSRSKNVEYPPPREKKDRLSEMIDLTGGWYEPTLNRIVTYEASNLPLAMLAFSGVGFLAGMFGLGAGWANVPILNLVMGLPLKAAVASSMLILAINDSASLWVYLANGAVLPIVVVPVVLGISIGSRIGSRLAAKTKPKVIKRLVIALIALSGVVNIIQGLSGIGLLNL”, the protein production result is given as “failed”.
For “MDCIRNNSVLINNLSSFTSGIMSSGYSPFYILYIAMNIATLTYAVGTLFYGLPIPIYGLKKWGPRMMSDAIYAAVWVNIYGIIIFAIGQIQSLLGVDWSSFFSSILQLQANMFSALIQVKSLYYIITTEKISMALALLADPVLQFSSFITDIIFLLQFFIDLGEFIQQSYMILIAIGILLLSLPFRMGKGVGGTLISSAIIFYIGLPYLPIFMQEMSSITLSQIGSQLSTITDVNTLVETIAGVVPELVIVFIIIPMLYLSILAGISLGLGNAIGGSSGRVPFPLDLF” the value was “failed”; for “MDKAATPWLRYLEELRPHLQGRDHRGRKGSLRWLEALMAERGGRAGTVRNILYKDLGSPEEKERLYRILADLYREAGLKPPPPPAELFLKSARKVLGRDKRRIFRHFLRELEAGRRPQVVVVGGAATGKGVLLSALRQALAAFPGKTPFVLNLGGELAQALIPLAEELGVEAETLLSQLSPTQPYILQGALQQEFLAALAQALNRAGRPLLLRAEAQGTLEGLPLRGPDGGQRGLSAWLEPFLRSLEIPYLAALTEPPPTLPYQPLSPPSREEARRFVRERLPHLPPERLEALVNQAGRNFGELSRLVLLEAAKHDPETPLQDDPALRPLLEALAAFSPEADPAFPAALLERALNRPLERLSQAEKALLEWVGDGLVRPSLRSLLPQEAPRELHRLALEFFPRENLFRRLYHARKAGERRILLDLLTEDPARLALLPGLWQEARSWPKEDREALAAALVRYRAVLGQYAHPEVEEALALLAQAEDPRLRASARIKAAEAKADAGLYKEAEALLPPEEEFPLLDETARAEGLLVRAAVERWKGDYEKAARYAERAAELSVAPFLKDRVQLWRGLVAKDLGRYEEALTALAQVGHDPLLLGRARYQMGDLLMRLGSPEARARMEEGLKALEEAGAPQDEVARVRARYATLLRRLGLYPEAEAAIRRALEEALDPFTRARVESEAGILQAAQGRPLEALALLSRAEAYFRTTGERPKEARYRHLRTLFRLAAAYLLLETGTPYRPPLLGGLKAPEAERLLWDLLAKIPEEATDRYTALRLDAESLLALLLPPKEARERLRPFLGLANPYLRAQARLGYAEALLREGAYGEALAQTVALPPLLDPGLKAQAKATEVLALLALGEEEAAWQKLVEAKQSGLPEPFRLQLGRAVGRAHPGLAARLPPTPLAPPEALGLHLANPD”, “failed”; for “MTRDLAPALQALSPLLGSWAGRGAGKYPTIRPFEYLEEVVFAHVGKPFLTYTQQTRAVADGKPLHSETGYLRVCRPGCVELVLAHPSGITEIEVGTYSVTGDVIELELSTRADGSIGLAPTAKEVTALDRSYRIDGDELSYSLQMRAVGQPLQDHLAAVLHRQR”, “not failed”.
Turning to “MEPQKESNQNYLPYPPHPQQDHDEIDLRELFKALWEGKWIVIATTFVIAVSAVLYALSLPNIYKADALLAPAESSNGGGLSKMAGQLGGLAALAGVNLGASESSQTDLAVQVMRSRQFINTFINKHDLLVPLMAGKDWDLSNNKLILDEELYNPNTGEWLRDAKGLRGATPTAQEAFEVFSKEVLSINQDKESGLYTVSMKNYSPYIAQQWVNWLIEDINKAMRERTIAETSQNLAYLNTQLQKTAVTDMQSTFYKLIEEQTKSLMLAEVQEEFVFKVVDPAVVPELKDSPKRVLICVLGILLGVMLGVAIVLIRIVFRKEDTENLEPRT”, the protein production entry was “failed”.
